According to article PMC4601640 (2015):

T1: CK2-phosphorylated human full-length p50^Cdc37 (human, UniProt Q16543 1-378, phosphoserine at 13 (shown by Western blot))
T1 chain: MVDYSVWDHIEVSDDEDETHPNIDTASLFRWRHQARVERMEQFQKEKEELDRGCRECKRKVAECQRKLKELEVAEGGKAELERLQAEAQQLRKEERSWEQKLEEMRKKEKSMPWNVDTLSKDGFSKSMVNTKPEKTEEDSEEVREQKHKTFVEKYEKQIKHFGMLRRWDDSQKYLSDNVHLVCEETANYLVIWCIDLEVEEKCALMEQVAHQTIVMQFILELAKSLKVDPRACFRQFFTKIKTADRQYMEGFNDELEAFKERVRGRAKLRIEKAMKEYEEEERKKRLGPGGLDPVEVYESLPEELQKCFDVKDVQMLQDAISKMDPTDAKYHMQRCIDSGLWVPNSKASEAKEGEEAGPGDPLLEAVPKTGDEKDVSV


Columns and labels:
[1] = biological target: T1, CK2-phosphorylated human full-length …; experiment: ITC; phosphorylated Cdc37
[2] = biological target: T1, CK2-phosphorylated human full-length …; experiment: ITC; both phosphorylated

Row | Binder | Kd [1] [nM] | Kd [2] [nM]
1 | human full-length Hsp90β (natural protein) not shown | 1400 | 
2 | CK2-phosphorylated human full-length Hsp90β (natural protein, phosphoserine at 255 (shown by Western blot); Ser226 named as a CK2 site, its phosphorylation could not be verified) not shown |  | 1900
